In the RNAGym collection of RNA variant scans (doi:10.7554/elife.80360) one finds self-cleavage data, which are given here for 167 variants.

To fix the notation:
B1: Hairpin Ribozyme (parent)
chain: GUCCUCUUUCACGUGCGCGUGAAAGAGAGAAGUGAACCAGAGAAACACACGUUGUGGUAUAUUACCUGGUA

In the data set the parent is B1. Briefly: self-cleavage, relative activity (ratio to wild type); higher = more cleavage; co-transcriptional.
For U8A A71G, the self-cleavage came to 0.699.

With U9A C48A, the self-cleavage worked out at 0.144.

Take U8C G29C: the self-cleavage is 0.0996.

As for U8C G21U, the self-cleavage is 0.142.

As for U8G A43C, the self-cleavage came to 0.152.

Turning to U8G A43U, the self-cleavage was found to be 0.228.

With U8G G17U, the self-cleavage is 0.651.

As for U9A G51U, the self-cleavage turned out to be 0.675.

U9C C46A: the self-cleavage stood at 0.122.

With U8C A43G, the self-cleavage stood at 0.16.

Turning to U8C A43U, the self-cleavage turned out to be 0.241.

Turning to U8C A31C, the self-cleavage stood at 0.0859.

Turning to U8C A31U, the self-cleavage was found to be 0.14.

In the case of U8C A31G, the self-cleavage came to 0.241.

On to U8G C48G, for which the self-cleavage turned out to be 0.138.

As to U8G C48U, the self-cleavage was 0.0825.

For U8G C48A, the self-cleavage came to 0.146.

On to U8A C38A, for which the self-cleavage came out at 0.15.

For U8A C38G, the self-cleavage is 0.102.

As for U8C U70G, the self-cleavage came out at 0.35.

Regarding U9G A41U, the self-cleavage worked out at 1.15.

Turning to U9C U14C, the self-cleavage amounted to 0.533.

Take U8A G51A: the self-cleavage was 0.749.

U8A G51U: the self-cleavage came to 0.92.

For U9C G54A, the self-cleavage stood at 0.501.

Turning to U9C G54C, the self-cleavage was found to be 0.413.

With U8A A64G, the self-cleavage was 0.503.

Consider U9A C66U, for which the self-cleavage was 0.266.

U9A C50G: the self-cleavage is 0.214.

For U9A C50A, the self-cleavage was 0.264.

U8G A22U: the self-cleavage is 0.582.

Take U9A A41G: the self-cleavage was found to be 0.675.

For U8C G42U, the self-cleavage amounted to 0.252.

In the case of U9G A71G, the self-cleavage came to 0.779.

With U9G A71C, the self-cleavage is 1.2.

U9G A71U: the self-cleavage amounted to 0.601.

Consider U8G G21U, for which the self-cleavage turned out to be 0.523.

U8C A47C: the self-cleavage was found to be 0.131.

As to U9C A36G, the self-cleavage stood at 0.882.

For the variant U8A U60C, the self-cleavage was found to be 0.89.

Consider U9G A23C, for which the self-cleavage came out at 0.589.

On to U9G A23U, for which the self-cleavage came to 0.482.

As to U9G C66A, the self-cleavage was 0.279.

With U9G G32U, the self-cleavage was 0.123.

Regarding U8C A61G, the self-cleavage is 0.0942.

On to U9G G19C, for which the self-cleavage was 0.56.

As for U8C A28G, the self-cleavage is 1.07.

As for U8G A36U, the self-cleavage worked out at 0.557.

On to U8G A47C, for which the self-cleavage came to 0.266.

For U8G C18G, the self-cleavage amounted to 0.518.

As for U8C G17A, the self-cleavage turned out to be 0.632.

In the case of U9G G40C, the self-cleavage amounted to 0.104.

Consider U8A U53C, for which the self-cleavage stood at 0.778.

As to U9G A59C, the self-cleavage was found to be 0.275.

Regarding U9G A59U, the self-cleavage was determined as 0.101.

As for U9G A28U, the self-cleavage was determined as 0.46.

With U8A G29C, the self-cleavage was found to be 0.104.

For the variant U8A G29U, the self-cleavage worked out at 0.0651.

Regarding U8C A64C, the self-cleavage came to 0.043.

Consider U8C U58C, for which the self-cleavage is 0.911.

For U8C U58A, the self-cleavage stood at 0.552.

For U8C U9G, the self-cleavage was 0.374.

For U8G U70C, the self-cleavage was 0.675.

U8G U70G: the self-cleavage came to 0.608.

U9G A24G: the self-cleavage turned out to be 0.672.

Turning to U9A G56C, the self-cleavage came to 0.0939.

As for U8G U9A, the self-cleavage stood at 0.734.

U8G C66G: the self-cleavage stood at 0.162.

Consider U8G C66A, for which the self-cleavage was found to be 0.169.

In the case of U8A G27C, the self-cleavage is 0.186.

For the variant U8A U58A, the self-cleavage stood at 0.561.

For U8A U58G, the self-cleavage turned out to be 0.515.

In the case of U8A U58C, the self-cleavage is 0.913.

Turning to U8C G40A, the self-cleavage is 0.274.

For the variant U9C A22C, the self-cleavage was 0.799.

Regarding U9C A22G, the self-cleavage was 1.04.

On to U9G G25A, for which the self-cleavage turned out to be 0.153.

On to U8G U52G, for which the self-cleavage came out at 0.621.

For U8G U52A, the self-cleavage stood at 0.752.

Take U8A C16A: the self-cleavage worked out at 0.876.

Take U8A C16G: the self-cleavage is 0.632.

As to U8C U14G, the self-cleavage worked out at 0.501.

Take U9C G51A: the self-cleavage was found to be 0.775.

As for U9C G51C, the self-cleavage was 0.761.

Turning to U8C C16A, the self-cleavage is 0.84.

Regarding U8C C16G, the self-cleavage came out at 0.651.

Consider U8C C16U, for which the self-cleavage was found to be 0.734.

For the variant U8C U33G, the self-cleavage is 0.36.

Turning to U8C U33C, the self-cleavage was 0.214.

As to U9C U60G, the self-cleavage is 0.615.

As for U8C C66U, the self-cleavage turned out to be 0.273.

Consider U8C C66A, for which the self-cleavage came to 0.19.

Take U8A U9G: the self-cleavage amounted to 0.791.

Take U8A U9A: the self-cleavage turned out to be 0.793.

Take U9A A44G: the self-cleavage was determined as 0.0648.

Regarding U9C G17U, the self-cleavage was found to be 0.709.

As for U9C A59U, the self-cleavage stood at 0.146.

For the variant U9C A59C, the self-cleavage is 0.142.

Take U9C A61U: the self-cleavage turned out to be 0.0555.

In the case of U9G A47G, the self-cleavage worked out at 0.231.

Take U9G C10U: the self-cleavage came to 0.743.

With U9G C10A, the self-cleavage worked out at 0.735.

For U8C A39G, the self-cleavage was found to be 0.201.

In the case of U8C A39U, the self-cleavage was found to be 0.25.

As for U9C G68U, the self-cleavage was determined as 0.217.

U9A C37G: the self-cleavage stood at 0.189.

With U9A C37A, the self-cleavage came out at 0.193.

With U9A C37U, the self-cleavage worked out at 0.317.

Consider U8C A11C, for which the self-cleavage was 0.289.

Consider U9A G32A, for which the self-cleavage was found to be 0.179.

On to U9G G15C, for which the self-cleavage amounted to 0.893.

Consider U9G G15U, for which the self-cleavage is 0.894.

On to U9C G57C, for which the self-cleavage stood at 0.0619.

U9A A35U: the self-cleavage was determined as 0.578.

Take U9A A35G: the self-cleavage was 0.744.

U9A G25C: the self-cleavage worked out at 0.232.

For U9A G25A, the self-cleavage was 0.191.

Take U8G U33G: the self-cleavage turned out to be 0.111.

U8C U55G: the self-cleavage was 0.101.

As for U8C A59U, the self-cleavage was 0.116.

Take U9C U33C: the self-cleavage was 0.104.

Turning to U9A C65G, the self-cleavage is 0.203.

Take U9A C65U: the self-cleavage amounted to 0.335.

On to U8A G56A, for which the self-cleavage came out at 0.158.

Take U8G A61U: the self-cleavage turned out to be 0.184.

For the variant U8G A61C, the self-cleavage was determined as 0.189.

Take U9A U58G: the self-cleavage amounted to 0.494.

Take U9A U58A: the self-cleavage amounted to 0.344.

For U8A G57U, the self-cleavage came out at 0.267.

For U8A G57C, the self-cleavage turned out to be 0.0778.

With U8A G57A, the self-cleavage was determined as 0.196.

Consider U8A G19U, for which the self-cleavage came to 0.661.

With U9C A24U, the self-cleavage was 0.677.

In the case of U8C G54C, the self-cleavage was determined as 0.346.

For U9C A26U, the self-cleavage is 0.546.

Regarding U9G G27C, the self-cleavage is 0.115.

Turning to U9G C12G, the self-cleavage is 0.53.

In the case of U9G C12A, the self-cleavage was found to be 0.499.

Regarding U9A C46G, the self-cleavage was determined as 0.135.

Consider U9A C46U, for which the self-cleavage came out at 0.134.

U8G C12U: the self-cleavage amounted to 0.447.

With U8G C12A, the self-cleavage worked out at 0.395.

Regarding U9A U55G, the self-cleavage stood at 0.279.

Regarding U9C U67C, the self-cleavage is 0.203.

Turning to U9C U67G, the self-cleavage was determined as 0.283.

In the case of U8C C10U, the self-cleavage was 0.564.

For the variant U9G A39C, the self-cleavage was found to be 0.356.

Consider U8C C37G, for which the self-cleavage is 0.214.

Turning to U8C G57U, the self-cleavage is 0.368.

For U8A U62A, the self-cleavage came to 0.105.

With U8G U58C, the self-cleavage is 0.725.

Consider U8G U55G, for which the self-cleavage was 0.223.

As to U9G C38U, the self-cleavage came to 0.41.

With U9G C38A, the self-cleavage amounted to 0.243.

As to U8A G17A, the self-cleavage stood at 0.742.

Consider U8G A45C, for which the self-cleavage turned out to be 0.111.

Regarding U8A C46U, the self-cleavage stood at 0.0775.

Regarding U8A C46A, the self-cleavage stood at 0.133.

Regarding U9C U58C, the self-cleavage came out at 0.747.

Regarding U9A A22C, the self-cleavage was found to be 0.773.

U9A A22G: the self-cleavage worked out at 0.605.

U8A G21U: the self-cleavage was 0.691.

In the case of U8C G27C, the self-cleavage amounted to 0.152.

Take U8C G27A: the self-cleavage is 0.443.

As to U9C C65U, the self-cleavage was 0.258.

Turning to U8G U14G, the self-cleavage amounted to 0.542.

As to U8G U14A, the self-cleavage is 0.554.
